What was measured:
[1] = target: wild type human α-synuclein (human) (UniProt P37840); assay: cell-based or functional assay
[2] = target: 12 amino acid fragment corresponding to amino acids 71-82 of human α-synuclein (human); assay: cell-based or functional assay

In the case of “M13 filamentous phage (wild-type, prepared with M13K07 helper phage)”, the ELISA of α-synuclein oligomers in the insoluble fraction of SH-SY5Y cells [1] is reported as 40 to 50 % reduction and the Thioflavine T (Tht) fluorescence emission at 480 nm of the pre-aggregated peptide [2] is reported as 43 % reduction.

— patent publication US20110286970A1
